These results are taken from patent US20240301068A1 (BEIJING HANMI PHARMACEUTICAL, published 2024).

In assay [1] the target is T1, recombinant human PD-L1-Fc protein (human, UniProt Q9NZQ7 19-238, limits assumed).
T1 construct: Prepared by Beijing Hanmi Pharmaceutical; The GenBank number is NP_001254635.1
Put plainly: competition ELISA: PD-L1-Fc coated, competitor biotin-labelled PD-1-Fc. How it is done: (§1) A 96-well high-adsorption ELISA plate was coated with 1 μg/mL of the recombinant human PD-L1-Fc at 100 μL per well using carbonate buffer solution, pH=9.6 at 4° C. overnight. The plate was washed 5 times with PBST, and then blocked using PBST with 1% BSA, 300 μL/well, and incubated at 25° C. for 1 hour, and then washed 5 times with PBST. […] The Streptavidin-HRP (BD Pharmingen, catalog number 554066) diluted 1:1000 in PBST with 1% BSA was then added, 100 μL per well, and incubated at 25° C. for 1 hour. The plate was washed 5 times with PBST. The colorimetric substrate TMB was added, 100 μL/well, and developed at room temperature for 10 minutes. 1M H₂SO₄ was added, 100 μL/well, to stop the development. The absorbance at 450 nm was read on a microplate reader.

In assay [2] the target is T2, recombinant human PD-L1 (Sino Biological Inc.) (human, UniProt Q9NZQ7 19-239). Put plainly: affinity determination (dissociation constant), method not stated.
T2 sequence (Q9NZQ7 19-239 limits assumed): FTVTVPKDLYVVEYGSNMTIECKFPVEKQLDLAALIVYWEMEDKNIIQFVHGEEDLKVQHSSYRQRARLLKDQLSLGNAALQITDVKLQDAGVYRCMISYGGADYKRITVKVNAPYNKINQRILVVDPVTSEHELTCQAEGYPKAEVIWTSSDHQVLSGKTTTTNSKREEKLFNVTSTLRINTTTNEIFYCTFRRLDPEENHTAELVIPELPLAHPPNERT
Assay [3] addresses T2, recombinant human PD-L1 (Sino …). Put plainly: ELISA, human PD-L1 coated. How it is done: as §1, with “PD-L1 (Sino Biological Inc.)” for “PD-L1-Fc”, “horseradish peroxidase-labeled anti-human IgG antibody (Chemicon,” for “Streptavidin-HRP (BD Pharmingen,”, “AP309P)” for “554066)”, “1:10000” for “1:1000”
For orientation: In an ELISA, binding on a coated surface is turned into a signal by an enzyme label.

Assay [4] shares this target. Description: PD-L1/CD80 blocking assay, competitor CD80, format not described.
Assay [5] shares this target. Description: SPR, Biacore X100. How it is done:
This instrument utilizes optical surface plasmon resonance technology to detect the association and dissociation between the molecules coated on the biochip and the molecules to be tested. Association constants and dissociation constants were analyzed and calculated by Biacore X100 evaluation software. […]
For orientation: SPR reads the build-up and loss of mass on a sensor chip optically.

Assay [6] concerns the target T1, recombinant human PD-L1-Fc protein. Put plainly: blocking ELISA, plate coated with 1 ug/mL human PD-L1-Fc; blocked ligand biotin-labelled PD-1-Fc at 20 nM final, streptavidin-HRP, OD450. As to the method:
as §1

The target of assay [7] is T2, recombinant human PD-L1 (Sino …). Description: ELISA, plate coated with 1 ug/mL recombinant human PD-L1, anti-mouse IgG-HRP, OD450. How it is done:
The plate was washed 5 times with PBST, and then blocked using PBST with 1% BSA, 300 μL/well, and incubated at 25° C. for 1 hour, and then washed 5 times with PBST. […] The plate was washed 5 times with PBST. The colorimetric substrate TMB was added, 100 μL/well, and developed at room temperature for 10 minutes. 1M H₂SO₄ was added, 100 μL/well, to stop the development. The absorbance at 450 nm was read on a microplate reader.

T1 sequence (Q9NZQ7 19-238 limits assumed): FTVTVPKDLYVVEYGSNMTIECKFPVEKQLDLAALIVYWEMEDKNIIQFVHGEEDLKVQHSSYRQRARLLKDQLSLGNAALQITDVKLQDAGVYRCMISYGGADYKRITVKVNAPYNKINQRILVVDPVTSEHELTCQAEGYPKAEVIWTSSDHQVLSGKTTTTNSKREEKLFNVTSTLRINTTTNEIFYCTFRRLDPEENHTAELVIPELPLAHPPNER

B1: humanized anti-human PD-L1 monoclonal antibody VLS10-VHS7 (antibody, human IgG1, kappa, V domains shown)
VH: QVQLVQSGAEVKKPGSSVKVSCTASGFNIEDTYIHWVRQAPGQGLEWMGRIDPANGNTKYDPKFQGRVTITADTSTNTAYMELSSLRSEDTAVYYCGRGLGAWFAYWGQGTLVTVSS
VL: DIQMTQSPSSLSASVGDRVTITCKASQDVHTAVAWIHQKPGKAPKLLIYSASNRYTGVPSRFSGSGSGTDFTFTISSLQPEDIATYYCQQHYITPLTFGQGTKLEIKR
As usually defined, the IC50 is the midpoint of a concentration-inhibition curve. In general, koff refers to a measure of how fast the partners let go of each other. The term EC50 denotes the concentration that produces a half-maximal response. Usually Kd stands for the free concentration of one partner at which half of the binding sites on the other are occupied at equilibrium, for simple one-to-one binding. For orientation: kon means the second-order rate constant of association. For the molecule B1, in assay [1], the IC50 came to 0.749 nM. Also, in assay [2], the koff stood at 0.000672 s⁻¹. In addition, the EC50 in assay [3] came to 0.067 nM. Further, the IC50 in assay [4] was determined as 0.89 nM. Moreover, in assay [5], the Kd was determined as 1.71 nM, the koff was 0.000584 s⁻¹ and the kon was found to be 341000 M⁻¹ s⁻¹.

B2: humanized anti-human PD-L1 monoclonal antibody VLS10-VHS7 P3 (antibody, human IgG1, kappa, V domains shown)
VH: QVQLVQSGAEVKKPGSSVKVSCTASGFNIEDTYIHWVRQAPGQGLEWMGRIDPANANTKYDPKFQGRVTITADTSTNTAYMELSSLRSEDTAVYYCGRGLGAWFAYWGQGTLVTVSS
VL: DIQMTQSPSSLSASVGDRVTITCKASQDVHTAVAWIHQKPGKAPKLLIYSASNRYTGVPSRFSGSGSGTDFTFTISSLQPEDIATYYCQQHYITPLTFGQGTKLEIKR
For the molecule B2, in assay [1], the IC50 worked out at 0.617 nM. Moreover, the EC50 in assay [3] stood at 0.063 nM. In addition, the IC50 in assay [4] was 0.804 nM. In assay [5], the Kd came to 2.93 nM, the dissociation rate constant (koff) turned out to be 0.000747 s⁻¹ and the kon amounted to 255000 M⁻¹ s⁻¹.

B3: humanized anti-human PD-L1 monoclonal antibody VLS15-VHS12 P2 (antibody, human IgG1, kappa, V domains shown)
VH: EVQLVQSGAEVKKPGSSVKVSCKASGFNIEDTYIHWVRQAPGQGLEWMGRIDPASGNTKYDPKFQGRVTITADTSTNTAYMELSSLRSEDTAVYYCGRGLGAWFAYWGQGTLVTVSS
VL: DIQMTQSPSSLSASVGDRVTITCKASQDVHTAVAWIQQKPGKSPKLLIYSASNRYTGVPSRFSGSGSGTDFTFTISSLQPEDIATYYCQQHYITPLTFGQGTKLEIKR
For the molecule B3, in assay [1], the IC50 came out at 0.585 nM. For the same molecule, in assay [3], the EC50 was 0.06 nM. In addition, in assay [4], the IC50 stood at 0.755 nM. Also, in assay [5], the Kd was found to be 1.94 nM, the koff is 0.00072 s⁻¹ and the kon stood at 372000 M⁻¹ s⁻¹.

B4: humanized anti-human PD-L1 monoclonal antibody VLS15-VHS12 P1 (antibody, human IgG1, kappa, V domains shown)
VH: EVQLVQSGAEVKKPGSSVKVSCKASGFNIEDTYIHWVRQAPGQGLEWMGRIDPAQGNTKYDPKFQGRVTITADTSTNTAYMELSSLRSEDTAVYYCGRGLGAWFAYWGQGTLVTVSS
VL: DIQMTQSPSSLSASVGDRVTITCKASQDVHTAVAWIQQKPGKSPKLLIYSASNRYTGVPSRFSGSGSGTDFTFTISSLQPEDIATYYCQQHYITPLTFGQGTKLEIKR
As to B4, the IC50 in assay [1] came to 0.567 nM. For the same molecule, the EC50 in assay [3] was determined as 0.048 nM. Moreover, the IC50 in assay [4] was 0.795 nM. Also, in assay [5], the Kd was determined as 2.56 nM, the koff amounted to 0.000833 s⁻¹ and the kon is 326000 M⁻¹ s⁻¹.

B5: humanized anti-human PD-L1 monoclonal antibody VLS15-VHS12 P3 (antibody, human IgG1, kappa, V domains shown)
VH: EVQLVQSGAEVKKPGSSVKVSCKASGFNIEDTYIHWVRQAPGQGLEWMGRIDPANANTKYDPKFQGRVTITADTSTNTAYMELSSLRSEDTAVYYCGRGLGAWFAYWGQGTLVTVSS
VL: DIQMTQSPSSLSASVGDRVTITCKASQDVHTAVAWIQQKPGKSPKLLIYSASNRYTGVPSRFSGSGSGTDFTFTISSLQPEDIATYYCQQHYITPLTFGQGTKLEIKR
For the molecule B5, the IC50 in assay [1] came out at 0.613 nM. Also, in assay [3], the EC50 was determined as 0.075 nM. Moreover, the IC50 in assay [4] worked out at 0.813 nM. Moreover, in assay [5], the Kd amounted to 1.56 nM, the off-rate (koff) stood at 0.000528 s⁻¹ and the kon turned out to be 338000 M⁻¹ s⁻¹.

B6: humanized anti-human PD-L1 monoclonal antibody VLS10-VHS7 P1 (antibody, human IgG1, kappa, V domains shown)
VH: QVQLVQSGAEVKKPGSSVKVSCTASGFNIEDTYIHWVRQAPGQGLEWMGRIDPAQGNTKYDPKFQGRVTITADTSTNTAYMELSSLRSEDTAVYYCGRGLGAWFAYWGQGTLVTVSS
VL: DIQMTQSPSSLSASVGDRVTITCKASQDVHTAVAWIHQKPGKAPKLLIYSASNRYTGVPSRFSGSGSGTDFTFTISSLQPEDIATYYCQQHYITPLTFGQGTKLEIKR
In the case of B6, in assay [1], the IC50 amounted to 0.756 nM. In addition, the EC50 in assay [3] came to 0.067 nM. In addition, the IC50 in assay [4] is 0.865 nM. Further, in assay [5], the Kd came to 3.16 nM, the koff was found to be 0.00108 s⁻¹ and the association rate constant (kon) is 341000 M⁻¹ s⁻¹.

B7: humanized anti-human PD-L1 monoclonal antibody VLS10-VHS7 P2 (antibody, human IgG1, kappa, V domains shown)
VH: QVQLVQSGAEVKKPGSSVKVSCTASGFNIEDTYIHWVRQAPGQGLEWMGRIDPASGNTKYDPKFQGRVTITADTSTNTAYMELSSLRSEDTAVYYCGRGLGAWFAYWGQGTLVTVSS
VL: DIQMTQSPSSLSASVGDRVTITCKASQDVHTAVAWIHQKPGKAPKLLIYSASNRYTGVPSRFSGSGSGTDFTFTISSLQPEDIATYYCQQHYITPLTFGQGTKLEIKR
B7: the IC50 in assay [1] was 0.725 nM. Besides, in assay [3], the EC50 was determined as 0.059 nM. Moreover, in assay [4], the IC50 came out at 0.857 nM. In addition, in assay [5], the Kd was 3.23 nM, the koff was 0.000994 s⁻¹ and the kon turned out to be 307000 M⁻¹ s⁻¹.

B8: humanized anti-human PD-L1 monoclonal antibody VLS15-VHS14 (antibody, human IgG1, kappa, V domains shown)
VH: EVQLVQSGAEVKKPGSSVKVSCKASGFNIEDTYIHWVRQAPGQGLEWIGRIDPANGNTKYDPKFQGRATITADTSTNTAYMELSSLRSEDTAVYYCGRGLGAWFAYWGQGTLVTVSS
VL: DIQMTQSPSSLSASVGDRVTITCKASQDVHTAVAWIQQKPGKSPKLLIYSASNRYTGVPSRFSGSGSGTDFTFTISSLQPEDIATYYCQQHYITPLTFGQGTKLEIKR
Consider B8, for which the koff in assay [2] amounted to 0.000452 s⁻¹.

B9: humanized anti-human PD-L1 monoclonal antibody VLS15-VHS12 (antibody, human IgG1, kappa, V domains shown)
VH: EVQLVQSGAEVKKPGSSVKVSCKASGFNIEDTYIHWVRQAPGQGLEWMGRIDPANGNTKYDPKFQGRVTITADTSTNTAYMELSSLRSEDTAVYYCGRGLGAWFAYWGQGTLVTVSS
VL: DIQMTQSPSSLSASVGDRVTITCKASQDVHTAVAWIQQKPGKSPKLLIYSASNRYTGVPSRFSGSGSGTDFTFTISSLQPEDIATYYCQQHYITPLTFGQGTKLEIKR
In the case of B9, the IC50 in assay [1] was 0.666 nM. In addition, the koff in assay [2] came to 0.000486 s⁻¹. For the same molecule, the EC50 in assay [3] amounted to 0.046 nM. For the same molecule, the IC50 in assay [4] was 0.802 nM. Further, in assay [5], the Kd was 1.39 nM, the koff came to 0.000477 s⁻¹ and the association rate constant (kon) stood at 342000 M⁻¹ s⁻¹.

B10: murine anti-human PD-L1 monoclonal antibody secreted by the clone 34-35 (antibody, V domains shown)
VH: EVQLQQSGAELVKPGASVKLSCTASGFNIEDTYIHWVMQRPEQGLEWIGRIDPANGNTKYDPKFQGKATITADTSSNTAYLQLSSLTSEDTAVYYCGRGLGAWFAYWGQGTLVTVSA
VL: DIVMTQSHKVMSTSVGDRVTITCKASQDVHTAVAWIHQKPGQSPKLLIYSASNRYTGVPDRFTGSGSGTDFTFTISSVQAEDLAVYYCQQHYITPLTFGAGTTLELK
notes: also called murine monoclonal antibodies
Take B10: the IC50 in assay [6] worked out at 0.61 nM. In addition, the EC50 in assay [7] came out at 0.494 nM.
